# Experimental data: the supplement of paper PMC10126150
# ± gives the standard deviation of the averaged measurements.
# Test system: ATP
# Test: switch fluorescence ratio, 500 uM ATP over buffer (Cy3 cluster intensity, sum of 5 cycles each) (fold (ratio)); higher = stronger signal-on switching upon ATP binding; sequences stand for … in TCGTCGGCAGCGTCAGATGTGTATAAGAGACAGTTTTTTTTTTTTTTTTTTTTTTTTT…TC
# Conditions: aptamer strand: ATP DNA aptamer (quencher-CACCTGGGGGAGTATTGCGGAGGAAGG + anchor), 100 nM annealed; ATP concentration: 500 uM
# Outline: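 Cy3-labelled switching-strand clusters on a modified Illumina MiSeq flow-cell were annealed to 100 nM quencher-labelled ATP aptamer and imaged first in selection buffer, then after 15 min with 500 uM ATP at 22 °C. NaOH stripping and re-annealing separated each of five buffer/ATP cycles, and clusters outside 100-1000 RFU were excluded. The fluorescence ratio sums target-cycle Cy3 intensity over buffer-cycle Cy3 intensity per cluster and averages it per switch-domain sequence.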
# 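Also: ATP exposure 15 min at 22 °C before imaging.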
row,Sequence,switch fluorescence ratio
1,TATTTCGAAC,1.02 ± 0.015
2,TATTTCTCGT,1.01 ± 0.056
3,TATTTGATGC,1.02 ± 0.036
4,TATTTGATTG,1.001 ± 0.0041
5,TATTTGCGCG,0.967 ± 0.037
6,TATTTGGGTG,1.05 ± 0.023
7,TATTTGGTTG,0.995 ± 0.018
8,TATTTTAGGT,1.01 ± 0.048
9,TATTTTAGTA,1.01 ± 0.03
10,TATTTTATTA,1.011 ± 0.0085
11,TATTTTCGGG,1.011 ± 0.0078
12,TATTTTGGGA,1.02 ± 0.021
13,TATTTTGTGA,0.952 ± 0.018
14,TATTTTGTTA,1.01 ± 0.047
15,TATTTTTAGT,1 ± 0.027
16,TATTTTTATT,1.01 ± 0.021
17,TATTTTTCGG,0.984 ± 0.041
18,TATTTTTGCT,0.981 ± 0.032
19,TATTTTTTTC,1 ± 0.018
20,TCAAACGTAT,1.06 ± 0.022
21,TCAAAGAATA,1.02 ± 0.029
22,TCAAAGTCAT,0.991 ± 0.0068

row,Sequence,switch fluorescence ratio
1,TCAAAGTCCT,1.01 ± 0.02
2,TCAAAGTTTT,1.01 ± 0.023
3,TCAAATTAGC,0.986 ± 0.023
4,TCAAATTTTC,1.02 ± 0.026
5,TCAACAGGGA,1.08 ± 0.15
6,TCAAGAAGGT,1 ± 0.018
7,TCAAGAGTTA,0.99 ± 0.035
8,TCAAGGGTGA,1.03 ± 0.022
9,TCAAGTATCA,1.02 ± 0.02
10,TCAAGTGGGG,1.01 ± 0.053
11,TCAAGTTAAG,0.9772 ± 0.0014
12,TCAAGTTTTT,1.012 ± 0.0044
13,TCAATATGTT,1.004 ± 0.0073
14,TCAATCAGAG,1.01 ± 0.0045
15,TCAATCGTGG,1.01 ± 0.021
16,TCAATCTGGG,1.006 ± 0.0066
17,TCAATCTTCT,1.032 ± 0.0095
18,TCAATGATGG,1 ± 0.0046
19,TCAATTATAC,1.94 ± 0.41
20,TCAATTCTAC,1.02 ± 0.041
21,TCAATTTGTT,0.992 ± 0.033
22,TCACAGCTGG,1.04 ± 0.016

row,Sequence,switch fluorescence ratio
1,TCACAGGTTT,1.05 ± 0.017
2,TCACATAGTT,1.01 ± 0.0061
3,TCACATTATT,1.04 ± 0.02
4,TCACCTTATT,1.03 ± 0.022
5,TCACGAACCT,1.69 ± 0.1
6,TCACGAGTTT,1.014 ± 0.0038
7,TCACGGAAGT,1.022 ± 0.0036
8,TCACGGGGGC,0.976 ± 0.061
9,TCACGGGTTC,1.03 ± 0.031
10,TCACGTGGCT,0.975 ± 0.015
11,TCACGTTGTT,0.981 ± 0.036
12,TCACTATACA,1.315 ± 0.0077
13,TCACTATTTA,1.013 ± 0.0082
14,TCACTATTTT,1.01 ± 0.02
15,TCAGAAGGCT,0.999 ± 0.065
16,TCAGAATATT,0.978 ± 0.023
17,TCAGAGATGA,0.95 ± 0.026
18,TCAGAGGCTT,0.996 ± 0.04
19,TCAGAGTGCT,1.03 ± 0.025
20,TCAGATCTGT,1 ± 0.024
21,TCAGATGGTG,1.02 ± 0.014
22,TCAGCAGGTT,2.85 ± 2.2

row,Sequence,switch fluorescence ratio
1,TCAGCATTTT,1.01 ± 0.046
2,TCAGGAGGGG,0.997 ± 0.02
3,TCAGGGGGAC,1.78 ± 1.3
4,TCAGGGGGGC,1.28 ± 0.62
5,TCAGGGTTAT,1.02 ± 0.0034
6,TCAGGGTTGT,1.02 ± 0.031
7,TCAGGGTTTC,0.984 ± 0.013
8,TCAGGTAATT,1.03 ± 0.031
9,TCAGGTGCGG,1.16 ± 0.061
10,TCAGGTTAGG,1.008 ± 0.0065
11,TCAGTAATGA,1.0075 ± 7.1e-05
12,TCAGTATAGC,1.018 ± 0.004
13,TCAGTCAACC,1.1 ± 0.017
14,TCAGTCAGTT,0.991 ± 0.048
15,TCAGTCATTA,0.989 ± 0.016
16,TCAGTCTGCC,1.03 ± 0.052
17,TCAGTCTTTT,0.998 ± 0.016
18,TCAGTGAACT,1 ± 0.039
19,TCAGTTGGGA,0.9697 ± 0.0062
